Earlier results in article PMC7139808.

Experiments:
[1] = target: hemoglobin (Homo sapiens) (UniProt P69905)
[2] = target: hemoglobin (Mus musculus) (UniProt P01942)
Sequence of UniProt P01942 (P01942 2-142, chain 1 of 2): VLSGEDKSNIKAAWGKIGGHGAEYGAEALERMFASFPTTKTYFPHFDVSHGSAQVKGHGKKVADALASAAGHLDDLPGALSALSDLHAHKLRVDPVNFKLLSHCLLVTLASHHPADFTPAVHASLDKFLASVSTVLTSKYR
Sequence of UniProt P01942 (P02088 2-147, chain 2 of 2, further chain): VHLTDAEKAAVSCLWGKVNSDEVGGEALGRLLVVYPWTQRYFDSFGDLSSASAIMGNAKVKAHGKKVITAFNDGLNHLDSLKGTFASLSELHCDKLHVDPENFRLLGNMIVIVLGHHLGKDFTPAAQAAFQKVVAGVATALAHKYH

Sequence of UniProt P69905 (P69905 2-142, chain 1 of 2): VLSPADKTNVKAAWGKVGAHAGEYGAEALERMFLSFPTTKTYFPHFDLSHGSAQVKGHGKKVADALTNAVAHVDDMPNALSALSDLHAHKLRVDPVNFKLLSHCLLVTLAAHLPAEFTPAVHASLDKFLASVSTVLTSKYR
Sequence of UniProt P69905 (P68871 2-147, chain 2 of 2, further chain): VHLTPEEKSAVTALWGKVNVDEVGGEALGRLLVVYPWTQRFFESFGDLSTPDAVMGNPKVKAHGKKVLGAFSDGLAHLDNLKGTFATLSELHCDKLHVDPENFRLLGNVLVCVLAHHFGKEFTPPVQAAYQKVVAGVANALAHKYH

Q: With IsdB (from UniProt A7X146) as the substance, how does the Kd [1] read?
A: 55 nM

Q: What about the Kd [2] of the same substance?
A: 980 nM
